# ± gives the uncertainty stated by the source.
# B1: Nuclear receptor subfamily 4 group A member 2, residues 260 to 336; numbered along this chain, P43354 (parent)
# chain: EGLCAVCGDNAACQHYGVRTCEGCKGFFKRTVQKNAKYVCLANKNCPVDKRRRNRCQYCRFQKCLAVGMVKEVVRTD
# Variants of: B1
# Assay: abundance fitness (aPCA) (normalised: wild type 0, dead -1); higher = more abundant; growth selection in yeast, the domain comes from the species named
# Settings: Homo sapiens
row,Variant,abundance fitness
1,EGLCAVCGDNAACQHYGVRTCEGCVGFFKRTVQKNAKYVCLANKNCPVDKRRRNRCQYCRFQKCLAVGMVKEVVRTD,0.046 ± 0.085
2,EGLCAVCGDNAACQHYGVRTCEGCPGFFKRTVQKNAKYVCLANKNCPVDKRRRNRCQYCRFQKCLAVGMVKEVVRTD,-0.675 ± 0.3
3,EGLCAVCGDNAACQHYGVRTCEGCTGFFKRTVQKNAKYVCLANKNCPVDKRRRNRCQYCRFQKCLAVGMVKEVVRTD,-0.12 ± 0.17
4,EGLCAVCGDNAACQHYGVRTCEGCFGFFKRTVQKNAKYVCLANKNCPVDKRRRNRCQYCRFQKCLAVGMVKEVVRTD,-0.047 ± 0.36
5,EGLCAVCGDNAACQHYGVRTCEGCMGFFKRTVQKNAKYVCLANKNCPVDKRRRNRCQYCRFQKCLAVGMVKEVVRTD,0.082 ± 0.12
6,EGLCAVCGDNAACQHYGVRTCEGCRGFFKRTVQKNAKYVCLANKNCPVDKRRRNRCQYCRFQKCLAVGMVKEVVRTD,0.079 ± 0.071
7,EGLCAVCGDNAACQHYGVRTCEGCWGFFKRTVQKNAKYVCLANKNCPVDKRRRNRCQYCRFQKCLAVGMVKEVVRTD,-0.013 ± 0.13
8,EGLCAVCGDNAACQHYGVRTCEGCYGFFKRTVQKNAKYVCLANKNCPVDKRRRNRCQYCRFQKCLAVGMVKEVVRTD,-0.503 ± 0.31
9,EGLCAVCGDNAACQHYGVRTCEGCAGFFKRTVQKNAKYVCLANKNCPVDKRRRNRCQYCRFQKCLAVGMVKEVVRTD,0.127 ± 0.11
10,EGLCAVCGDNAACQHYGVRTCEGCEGFFKRTVQKNAKYVCLANKNCPVDKRRRNRCQYCRFQKCLAVGMVKEVVRTD,0.049 ± 0.1
11,EGLCAVCGDNAACQHYGVRTCEGCDGFFKRTVQKNAKYVCLANKNCPVDKRRRNRCQYCRFQKCLAVGMVKEVVRTD,-0.017 ± 0.18
12,EGLCAVCGDNAACQHYGVRTCEGCLGFFKRTVQKNAKYVCLANKNCPVDKRRRNRCQYCRFQKCLAVGMVKEVVRTD,0.057 ± 0.098
13,EGLCAVCGDNAACQHYGVRTCEGCGGFFKRTVQKNAKYVCLANKNCPVDKRRRNRCQYCRFQKCLAVGMVKEVVRTD,0.101 ± 0.094
14,EGLCAVCGDNAACQHYGVRTCEGCQGFFKRTVQKNAKYVCLANKNCPVDKRRRNRCQYCRFQKCLAVGMVKEVVRTD,-0.019 ± 0.12
15,EGLCAVCGDNAACQHYGVRTCEGCNGFFKRTVQKNAKYVCLANKNCPVDKRRRNRCQYCRFQKCLAVGMVKEVVRTD,0.033 ± 0.36
16,EGLCAVCGDNAACQHYGVRTCEGCSGFFKRTVQKNAKYVCLANKNCPVDKRRRNRCQYCRFQKCLAVGMVKEVVRTD,-0.031 ± 0.079
17,EGLCAVCGDNAACQHYGVRTCEGCKGWFKRTVQKNAKYVCLANKNCPVDKRRRNRCQYCRFQKCLAVGMVKEVVRTD,-0.126 ± 0.071
18,EGLCAVCGDNAACQHYGVRTCEGCKGSFKRTVQKNAKYVCLANKNCPVDKRRRNRCQYCRFQKCLAVGMVKEVVRTD,-1.12 ± 0.29
19,EGLCAVCGDNAACQHYGVRTCEGCKGLFKRTVQKNAKYVCLANKNCPVDKRRRNRCQYCRFQKCLAVGMVKEVVRTD,-0.431 ± 0.085
20,EGLCAVCGDNAACQHYGVRTCEGCKGGFKRTVQKNAKYVCLANKNCPVDKRRRNRCQYCRFQKCLAVGMVKEVVRTD,-0.99 ± 0.17
21,EGLCAVCGDNAACQHYGVRTCEGCKGMFKRTVQKNAKYVCLANKNCPVDKRRRNRCQYCRFQKCLAVGMVKEVVRTD,-0.584 ± 0.2
22,EGLCAVCGDNAACQHYGVRTCEGCKGTFKRTVQKNAKYVCLANKNCPVDKRRRNRCQYCRFQKCLAVGMVKEVVRTD,-1.04 ± 0.33
23,EGLCAVCGDNAACQHYGVRTCEGCKGKFKRTVQKNAKYVCLANKNCPVDKRRRNRCQYCRFQKCLAVGMVKEVVRTD,-0.691 ± 0.25
24,EGLCAVCGDNAACQHYGVRTCEGCKGEFKRTVQKNAKYVCLANKNCPVDKRRRNRCQYCRFQKCLAVGMVKEVVRTD,-0.959 ± 0.33

row,Variant,abundance fitness
1,EGLCAVCGDNAACQHYGVRTCEGCKGAFKRTVQKNAKYVCLANKNCPVDKRRRNRCQYCRFQKCLAVGMVKEVVRTD,-1.06 ± 0.25
2,EGLCAVCGDNAACQHYGVRTCEGCKGIFKRTVQKNAKYVCLANKNCPVDKRRRNRCQYCRFQKCLAVGMVKEVVRTD,-0.705 ± 0.47
3,EGLCAVCGDNAACQHYGVRTCEGCKGYFKRTVQKNAKYVCLANKNCPVDKRRRNRCQYCRFQKCLAVGMVKEVVRTD,-0.846 ± 0.33
4,EGLCAVCGDNAACQHYGVRTCEGCKGRFKRTVQKNAKYVCLANKNCPVDKRRRNRCQYCRFQKCLAVGMVKEVVRTD,-0.975 ± 0.15
5,EGLCAVCGDNAACQHYGVRTCEGCKGHFKRTVQKNAKYVCLANKNCPVDKRRRNRCQYCRFQKCLAVGMVKEVVRTD,-0.624 ± 0.36
6,EGLCAVCGDNAACQHYGVRTCEGCKGVFKRTVQKNAKYVCLANKNCPVDKRRRNRCQYCRFQKCLAVGMVKEVVRTD,-0.934 ± 0.18
7,EGLCAVCGDNAACQHYGVRTCEGCKGFLKRTVQKNAKYVCLANKNCPVDKRRRNRCQYCRFQKCLAVGMVKEVVRTD,-0.15 ± 0.077
8,EGLCAVCGDNAACQHYGVRTCEGCKGFRKRTVQKNAKYVCLANKNCPVDKRRRNRCQYCRFQKCLAVGMVKEVVRTD,-0.75 ± 0.11
9,EGLCAVCGDNAACQHYGVRTCEGCKGFSKRTVQKNAKYVCLANKNCPVDKRRRNRCQYCRFQKCLAVGMVKEVVRTD,-0.381 ± 0.095
10,EGLCAVCGDNAACQHYGVRTCEGCKGFHKRTVQKNAKYVCLANKNCPVDKRRRNRCQYCRFQKCLAVGMVKEVVRTD,-0.114 ± 0.29
11,EGLCAVCGDNAACQHYGVRTCEGCKGFCKRTVQKNAKYVCLANKNCPVDKRRRNRCQYCRFQKCLAVGMVKEVVRTD,-0.483 ± 0.36
12,EGLCAVCGDNAACQHYGVRTCEGCKGFDKRTVQKNAKYVCLANKNCPVDKRRRNRCQYCRFQKCLAVGMVKEVVRTD,-0.747 ± 0.5
13,EGLCAVCGDNAACQHYGVRTCEGCKGFIKRTVQKNAKYVCLANKNCPVDKRRRNRCQYCRFQKCLAVGMVKEVVRTD,-0.262 ± 0.18
14,EGLCAVCGDNAACQHYGVRTCEGCKGFYKRTVQKNAKYVCLANKNCPVDKRRRNRCQYCRFQKCLAVGMVKEVVRTD,0.23 ± 0.26
15,EGLCAVCGDNAACQHYGVRTCEGCKGFPKRTVQKNAKYVCLANKNCPVDKRRRNRCQYCRFQKCLAVGMVKEVVRTD,-1.06 ± 0.35
16,EGLCAVCGDNAACQHYGVRTCEGCKGFQKRTVQKNAKYVCLANKNCPVDKRRRNRCQYCRFQKCLAVGMVKEVVRTD,-0.484 ± 0.13
17,EGLCAVCGDNAACQHYGVRTCEGCKGFTKRTVQKNAKYVCLANKNCPVDKRRRNRCQYCRFQKCLAVGMVKEVVRTD,-0.049 ± 0.083
18,EGLCAVCGDNAACQHYGVRTCEGCKGFWKRTVQKNAKYVCLANKNCPVDKRRRNRCQYCRFQKCLAVGMVKEVVRTD,-0.095 ± 0.066
19,EGLCAVCGDNAACQHYGVRTCEGCKGFNKRTVQKNAKYVCLANKNCPVDKRRRNRCQYCRFQKCLAVGMVKEVVRTD,-0.707 ± 0.43
20,EGLCAVCGDNAACQHYGVRTCEGCKGFVKRTVQKNAKYVCLANKNCPVDKRRRNRCQYCRFQKCLAVGMVKEVVRTD,-0.017 ± 0.054
21,EGLCAVCGDNAACQHYGVRTCEGCKGFAKRTVQKNAKYVCLANKNCPVDKRRRNRCQYCRFQKCLAVGMVKEVVRTD,-0.1 ± 0.063
22,EGLCAVCGDNAACQHYGVRTCEGCKGFMKRTVQKNAKYVCLANKNCPVDKRRRNRCQYCRFQKCLAVGMVKEVVRTD,-0.176 ± 0.11
23,EGLCAVCGDNAACQHYGVRTCEGCKGFKKRTVQKNAKYVCLANKNCPVDKRRRNRCQYCRFQKCLAVGMVKEVVRTD,-0.981 ± 0.33
24,EGLCAVCGDNAACQHYGVRTCEGCKGFEKRTVQKNAKYVCLANKNCPVDKRRRNRCQYCRFQKCLAVGMVKEVVRTD,-1.29 ± 0.45

row,Variant,abundance fitness
1,EGLCAVCGDNAACQHYGVRTCEGRKGFFKRTVQKNAKYVCLANKNCPVDKRRRNRCQYCRFQKCLAVGMVKEVVRTD,-0.954 ± 0.43
2,EGLCAVCGDNAACQHYGVRTCEGVKGFFKRTVQKNAKYVCLANKNCPVDKRRRNRCQYCRFQKCLAVGMVKEVVRTD,-0.802 ± 0.37
3,EGLCAVCGDNAACQHYGVRTCEGCKRFFKRTVQKNAKYVCLANKNCPVDKRRRNRCQYCRFQKCLAVGMVKEVVRTD,-0.174 ± 0.059
4,EGLCAVCGDNAACQHYGVRTCEGCKDFFKRTVQKNAKYVCLANKNCPVDKRRRNRCQYCRFQKCLAVGMVKEVVRTD,-0.062 ± 0.36
5,EGLCAVCGDNAACQHYGVRTCEGCKLFFKRTVQKNAKYVCLANKNCPVDKRRRNRCQYCRFQKCLAVGMVKEVVRTD,-0.137 ± 0.072
6,EGLCAVCGDNAACQHYGVRTCEGCKVFFKRTVQKNAKYVCLANKNCPVDKRRRNRCQYCRFQKCLAVGMVKEVVRTD,-0.191 ± 0.096
7,EGLCAVCGDNAACQHYGVRTCEGCKWFFKRTVQKNAKYVCLANKNCPVDKRRRNRCQYCRFQKCLAVGMVKEVVRTD,-0.388 ± 0.091
8,EGLCAVCGDNAACQHYGVRTCEGCKAFFKRTVQKNAKYVCLANKNCPVDKRRRNRCQYCRFQKCLAVGMVKEVVRTD,-0.079 ± 0.088
9,EGLCAVCGDNAACQHYGVRTCEGCKFFFKRTVQKNAKYVCLANKNCPVDKRRRNRCQYCRFQKCLAVGMVKEVVRTD,0.068 ± 0.18
10,EGLCAVCGDNAACQHYGVRTCEGCKCFFKRTVQKNAKYVCLANKNCPVDKRRRNRCQYCRFQKCLAVGMVKEVVRTD,-0.138 ± 0.11
11,EGLCAVCGDNAACQHYGVRTCEGCKHFFKRTVQKNAKYVCLANKNCPVDKRRRNRCQYCRFQKCLAVGMVKEVVRTD,0.16 ± 0.15
12,EGLCAVCGDNAACQHYGVRTCEGCKSFFKRTVQKNAKYVCLANKNCPVDKRRRNRCQYCRFQKCLAVGMVKEVVRTD,-0.218 ± 0.089
13,EGLCAVCGDNAACQHYGVRTCEGCKQFFKRTVQKNAKYVCLANKNCPVDKRRRNRCQYCRFQKCLAVGMVKEVVRTD,-0.171 ± 0.071
14,EGLCAVCGDNAACQHYGVRTCEGCKKFFKRTVQKNAKYVCLANKNCPVDKRRRNRCQYCRFQKCLAVGMVKEVVRTD,-0.352 ± 0.14
15,EGLCAVCGDNAACQHYGVRTCEGCKEFFKRTVQKNAKYVCLANKNCPVDKRRRNRCQYCRFQKCLAVGMVKEVVRTD,-0.214 ± 0.15
16,EGLCAVCGDNAACQHYGVRTCEGCKMFFKRTVQKNAKYVCLANKNCPVDKRRRNRCQYCRFQKCLAVGMVKEVVRTD,-0.27 ± 0.18
17,EGLCAVCGDNAACQHYGVRTCEGCKTFFKRTVQKNAKYVCLANKNCPVDKRRRNRCQYCRFQKCLAVGMVKEVVRTD,0.051 ± 0.13
18,EGLCAVCGDNAACQHYGVRTCEGCKGFFARTVQKNAKYVCLANKNCPVDKRRRNRCQYCRFQKCLAVGMVKEVVRTD,0.014 ± 0.096
19,EGLCAVCGDNAACQHYGVRTCEQCKGFFKRTVQKNAKYVCLANKNCPVDKRRRNRCQYCRFQKCLAVGMVKEVVRTD,-0.208 ± 0.43
20,EGLCAVCGDNAACQHYGVRTCEWCKGFFKRTVQKNAKYVCLANKNCPVDKRRRNRCQYCRFQKCLAVGMVKEVVRTD,-0.029 ± 0.17
21,EGLCAVCGDNAACQHYGVRTCEICKGFFKRTVQKNAKYVCLANKNCPVDKRRRNRCQYCRFQKCLAVGMVKEVVRTD,0.017 ± 0.25
22,EGLCAVCGDNAACQHYGVRTCEKCKGFFKRTVQKNAKYVCLANKNCPVDKRRRNRCQYCRFQKCLAVGMVKEVVRTD,0.106 ± 0.19
23,EGLCAVCGDNAACQHYGVRTCESCKGFFKRTVQKNAKYVCLANKNCPVDKRRRNRCQYCRFQKCLAVGMVKEVVRTD,0.306 ± 0.21

# — the Human Domainome abundance scans (Beltran et al. 2025)
